Measured values: EP4467153A1, “CONSTRAINED PEPTIDE INHIBITORS OF LRRK2-FADD INTERACTIONS” (University of Georgia Research Foundation, Inc., priority 2023, dated 2024)
Positions of bridges follow the written chain, without caps; N, C: chain ends. Non-standard residues stand in square brackets, D forms with d. Primed or numbered codes have the meaning given here. FAM = 5(6)-carboxyfluorescein label; S5 = C=CCCC[C@](C)(N)C(=O)O; PEG3′ = PEG3 spacer

Target: T1, LRRK2-FADD PPI (Flag G2019S-LRRK2 and V5-FADD) (Homo sapiens, UniProt Q5S007, G2019S)
T1 construct: expressed in transfected cells; host or cells: HEK293T
T1 sequence (Q5S007 whole entry G2019S): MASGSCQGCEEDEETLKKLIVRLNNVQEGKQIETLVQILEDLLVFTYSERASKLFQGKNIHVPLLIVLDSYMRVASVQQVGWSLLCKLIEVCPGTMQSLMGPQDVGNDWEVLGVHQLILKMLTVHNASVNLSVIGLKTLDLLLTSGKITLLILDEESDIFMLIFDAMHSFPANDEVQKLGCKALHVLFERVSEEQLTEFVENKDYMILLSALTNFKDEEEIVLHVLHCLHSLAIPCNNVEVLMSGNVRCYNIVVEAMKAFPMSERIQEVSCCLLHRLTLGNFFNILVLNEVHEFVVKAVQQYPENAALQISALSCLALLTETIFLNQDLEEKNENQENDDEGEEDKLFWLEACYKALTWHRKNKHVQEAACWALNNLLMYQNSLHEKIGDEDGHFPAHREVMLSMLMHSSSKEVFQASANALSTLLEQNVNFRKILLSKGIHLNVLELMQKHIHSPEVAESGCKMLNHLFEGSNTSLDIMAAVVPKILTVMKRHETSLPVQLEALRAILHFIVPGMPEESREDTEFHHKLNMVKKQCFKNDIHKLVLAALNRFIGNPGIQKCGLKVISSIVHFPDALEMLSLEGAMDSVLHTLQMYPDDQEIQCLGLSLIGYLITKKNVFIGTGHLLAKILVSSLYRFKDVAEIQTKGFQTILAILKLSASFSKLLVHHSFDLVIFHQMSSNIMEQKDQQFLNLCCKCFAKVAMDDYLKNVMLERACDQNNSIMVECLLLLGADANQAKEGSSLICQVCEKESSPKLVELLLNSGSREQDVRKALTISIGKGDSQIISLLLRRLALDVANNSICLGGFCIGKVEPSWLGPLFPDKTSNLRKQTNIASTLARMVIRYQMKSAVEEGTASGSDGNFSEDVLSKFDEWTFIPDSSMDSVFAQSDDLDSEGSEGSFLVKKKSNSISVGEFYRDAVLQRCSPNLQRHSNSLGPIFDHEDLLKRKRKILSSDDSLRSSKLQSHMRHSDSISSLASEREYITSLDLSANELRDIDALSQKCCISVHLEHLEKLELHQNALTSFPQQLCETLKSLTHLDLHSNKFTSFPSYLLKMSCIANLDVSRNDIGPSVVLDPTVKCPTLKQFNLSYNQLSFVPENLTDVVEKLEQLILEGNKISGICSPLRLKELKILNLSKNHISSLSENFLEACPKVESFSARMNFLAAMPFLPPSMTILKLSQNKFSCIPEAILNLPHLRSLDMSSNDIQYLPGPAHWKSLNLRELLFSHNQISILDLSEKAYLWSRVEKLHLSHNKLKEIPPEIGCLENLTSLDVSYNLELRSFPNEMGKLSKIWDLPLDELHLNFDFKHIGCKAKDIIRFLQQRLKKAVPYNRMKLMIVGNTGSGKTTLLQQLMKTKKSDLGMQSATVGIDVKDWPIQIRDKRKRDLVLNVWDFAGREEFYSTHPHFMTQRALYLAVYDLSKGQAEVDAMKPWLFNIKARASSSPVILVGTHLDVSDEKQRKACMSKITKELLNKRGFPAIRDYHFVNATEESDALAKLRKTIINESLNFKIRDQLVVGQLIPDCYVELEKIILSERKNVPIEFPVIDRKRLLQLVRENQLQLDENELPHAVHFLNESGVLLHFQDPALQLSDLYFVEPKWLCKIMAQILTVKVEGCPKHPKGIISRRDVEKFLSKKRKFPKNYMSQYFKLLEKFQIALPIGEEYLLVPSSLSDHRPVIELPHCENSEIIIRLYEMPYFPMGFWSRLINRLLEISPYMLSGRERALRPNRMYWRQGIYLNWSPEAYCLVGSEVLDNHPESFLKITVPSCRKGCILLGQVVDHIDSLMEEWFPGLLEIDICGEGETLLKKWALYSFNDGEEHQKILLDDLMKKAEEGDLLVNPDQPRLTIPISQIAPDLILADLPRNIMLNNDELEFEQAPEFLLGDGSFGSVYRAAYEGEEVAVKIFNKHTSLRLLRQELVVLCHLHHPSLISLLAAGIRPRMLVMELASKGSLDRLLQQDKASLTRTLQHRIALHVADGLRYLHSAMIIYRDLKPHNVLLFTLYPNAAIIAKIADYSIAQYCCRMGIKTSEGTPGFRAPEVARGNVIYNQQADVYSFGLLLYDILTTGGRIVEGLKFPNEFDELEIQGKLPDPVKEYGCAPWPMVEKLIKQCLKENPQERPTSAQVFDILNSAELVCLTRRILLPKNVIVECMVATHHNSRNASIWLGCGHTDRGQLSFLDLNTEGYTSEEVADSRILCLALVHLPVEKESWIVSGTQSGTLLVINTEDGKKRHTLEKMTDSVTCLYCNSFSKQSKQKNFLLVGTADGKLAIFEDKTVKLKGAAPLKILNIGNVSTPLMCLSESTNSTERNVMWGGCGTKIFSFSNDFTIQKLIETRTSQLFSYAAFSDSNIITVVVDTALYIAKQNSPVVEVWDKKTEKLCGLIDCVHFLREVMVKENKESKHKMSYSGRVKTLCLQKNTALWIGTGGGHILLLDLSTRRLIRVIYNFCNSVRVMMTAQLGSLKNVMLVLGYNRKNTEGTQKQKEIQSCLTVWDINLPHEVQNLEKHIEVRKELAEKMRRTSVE
Test: Co-immunoprecipitation of LRRK2-FADD interaction in transfected HEK293T cells
Format: cell-based
Conditions: 10 µM, 48 hr, normalized to immunoprecipitated Flag-LRRK2
Description: It was then assessed whether this peptide library (FARM1-FARM5) could disrupt the interaction between over-expressed Flag G2019S-LRRK2 and V5-FADD by co-immunoprecipitation. Flag-LRRK2 was purified on anti-Flag resin and the eluate as well as the protein extract (input) separated by SDS-PAGE, with the membranes probed for V5 (FADD) and Flag (LRRK2). The transfected cells were treated with the indicated peptide (10 µM) for a total of 48 hr prior to collection. […] To minimize the use of primary mouse cortical neuron cultures, FARMS was used in subsequent experiments to examine the potential neuroprotective effects of LRRK2-FADD disruption.
Assessment of LRRK2-FADD interaction. Co-immunoprecipitation was undertaken to determine the effects of the stapled peptides on the LRRK2-FADD PPI, as previously described. Briefly, 10cm plates of HEK293T cells transiently expressing Flag-WT or mutant LRRK2 and V5-FADD (at a 3:1 ratio), and treated with different concentrations of FARM peptides (as indicated in the Figure legends), were washed in PBS and lysed in co-IP buffer (20mM HEPES, pH7.4; 150 mM NaCl; 0.1% NP40; 2 mM EGTA; 2 mM MgCl2; 10% glycerol, pH 7.2; protease and phosphatase cocktail [Agilent Technologies]) for 30 min on ice followed by 15 strokes with a Dounce glass homogenizer, and centrifugation at 13000 rpm for 15 min to remove cellular debris. Following pre-clearing with IgG-coupled beads, 40 µl of washed anti-Flag resin (Sigma-Aldrich) per mg of protein was added and the samples incubated under rotation overnight at 4°C. The following morning, the beads were centrifuged and washed a total of 5X with coIP buffer, before elution in 2X SDS sample buffer at 95°C for 10 min. The eluate (and input) was separated by SDS-PAGE and membranes probed with anti-Flag (LRRK2) and V5 (FADD).

Substance	amount of FADD that co-purified with G2019S-LRRK2 (LRRK2-FADD interaction)
FARM2: FAM-labeled hydrocarbon-stapled FADD Armadillo domain peptide; mass fits SEQ ID NO. 3 KVADLXQEVXQARDLQNRSK ({FAM-PEG3′}-KVADL[S5]QEV[S5]QARDLQNRSK-NH2; staple 6-10; not fully specified) [FAM-labeled hydrocarbon-stapled FADD Armadillo domain peptide; 3 KVADLXQEVX…]	to a lesser extent
FARM3: FAM-labeled hydrocarbon-stapled FADD Armadillo domain peptide; mass fits SEQ ID NO. 4 KVADLVQEXQQAXDLQNRSK ({FAM-PEG3′}-KVADLVQE[S5]QQA[S5]DLQNRSK-NH2; staple 9-13; not fully specified) [FAM-labeled hydrocarbon-stapled FADD Armadillo domain peptide; 4 KVADLVQEXQQAXDLQNRSK]	reduced the interaction between LRRK2 and FADD
